{"source": "paper PMC12084609", "about": "“Structural insights into small-molecule agonist recognition and activation of complement receptor C3aR” (The EMBO Journal, 2025)", "type_in_all_cases": "cell-based", "key": {"C3aR L82^2.64A": {"target": "T1, C3aR L82^2.64A (Homo sapiens, UniProt Q16581, L82A)", "T1 construct": "expressed in transfected cells; host or cells: HEK293T", "T1 sequence (Q16581 1-482 L82A)": "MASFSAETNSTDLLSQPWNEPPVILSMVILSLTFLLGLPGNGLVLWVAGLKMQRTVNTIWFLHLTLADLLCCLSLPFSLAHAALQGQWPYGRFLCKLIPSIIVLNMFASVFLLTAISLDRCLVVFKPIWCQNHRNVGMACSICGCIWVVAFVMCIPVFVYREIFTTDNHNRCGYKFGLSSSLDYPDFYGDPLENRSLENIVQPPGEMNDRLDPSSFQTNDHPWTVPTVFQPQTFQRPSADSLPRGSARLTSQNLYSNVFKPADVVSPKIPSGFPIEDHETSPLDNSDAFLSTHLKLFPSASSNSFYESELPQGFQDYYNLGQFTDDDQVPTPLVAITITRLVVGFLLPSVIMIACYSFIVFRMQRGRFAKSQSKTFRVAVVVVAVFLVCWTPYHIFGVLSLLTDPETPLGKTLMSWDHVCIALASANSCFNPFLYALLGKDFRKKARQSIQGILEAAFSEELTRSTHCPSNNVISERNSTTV", "assay": "GloSensor-based cAMP assay, C3aR mutant L82A", "settings": "for cAMP response (% Forskolin): L822.64A, single replicates", "protocol": "(§1) HEK293T cells were seeded on 6-well plates (NEST) and transfected with pGlosensor™-22F plasmids (Promega) and pcDNA3.1 plasmids encoding C3aR or its mutants an with N-terminal FLAG tag. After 48 h, cells were detached with Accutase solution (Sigma-Aldrich) and washed with PBS, and resuspended in assay buffer (CO2-independent medium with 0.5 mg mL^−1D-luciferin). 100,000–200,000 cells were seeded on 96-well white bottom plates (SPL) and incubated at 37 °C for 45 min followed by 45 min incubation at room temperature. After 90 min of incubation, basal luminescence signals were recorded. In total, 25 μl of test ligand with various concentrations and 1 μM Forskolin (Sigma-Aldrich) were treated to the cells and luminescence signals were measured by Tristar 2 LB 942 multimode reader (Berthold). […] Relative luminescence unit (%) was calculated with the signal of wells treated with vehicle as 0% and the signal of wells treated with 1 μM Forskolin as 100% (DiRaddo et al, [2014]). Nonlinear regression was performed using a three-parameter logistic equation."}, "C3aR D417^7.35A": {"target": "T2, C3aR D417^7.35A (Homo sapiens, UniProt Q16581, D417A)", "T2 construct": "expressed in transfected cells; host or cells: HEK293T", "T2 sequence (Q16581 1-482 D417A)": "T1 sequence (Q16581 1-482 L82A) with A82L, D417A", "assay": "GloSensor-based cAMP assay, C3aR mutant D417A", "settings": "D4177.35A, single replicates", "protocol": "as §1"}, "C3aR H418^7.36A": {"target": "T3, C3aR H418^7.36A (Homo sapiens, UniProt Q16581, H418A)", "T3 construct": "expressed in transfected cells; host or cells: HEK293T", "T3 sequence (Q16581 1-482 H418A)": "T1 sequence (Q16581 1-482 L82A) with A82L, H418A", "assay": "GloSensor-based cAMP assay, C3aR mutant H418A", "settings": "for cAMP response (% Forskolin): single replicates", "protocol": "as §1"}, "[1]": {"settings": "Dunnett's multiple comparisons test, WT minus mutant"}}, "note": "Where a chain is given by its changes, count along the chain named. Several values for one entry are separate records, joined by “and”; a condition that tells them apart may be missing. Identical values can stand only once.", "data": [{"substance": "C3a: anaphylatoxin C3a, natural peptide ligand of C3aR (a 77-amino acid peptide), Sigma-Aldrich", "values": [{"measurement": "Mean Diff. of pIC50, WT vs. L82A", "setting": "C3aR L82^2.64A; [1]", "value": -0.166}, {"measurement": "ΔpIC50 ± SE of Diff.", "setting": "C3aR L82^2.64A; L82^2.64A relative to WT C3aR", "value": "0.17 ± 0.05"}, {"measurement": "IC50", "setting": "C3aR L82^2.64A; L82^2.64A, dose-response plot, read-out: IC50", "value": 1.98, "unit": "nM"}, {"measurement": "pIC50 (Replicate)", "setting": "C3aR L82^2.64A; L82^2.64A, individual replicates", "value": "8.88 and 8.82 and 8.71 and 8.44"}, {"measurement": "pIC50 ± SEM (Mean)", "setting": "C3aR L82^2.64A; L82^2.64A, mean of independent experiments", "value": "8.71 ± 0.10 and 8.71"}, {"measurement": "cAMP response (% Forskolin)", "setting": "C3aR L82^2.64A; Log[C3a (M)] -7", "value": "6.88 % Forskolin and 9.71 % Forskolin and 10.14 % Forskolin and 11.39 % Forskolin"}, {"measurement": "cAMP response (% Forskolin)", "setting": "C3aR L82^2.64A; Log[C3a (M)] -8", "value": "8.74 % Forskolin and 11.60 % Forskolin and 12.67 % Forskolin and 19.68 % Forskolin"}, {"measurement": "cAMP response (% Forskolin)", "setting": "C3aR L82^2.64A; Log[C3a (M)] -9", "value": "57.84 % Forskolin and 63.09 % Forskolin and 70.46 % Forskolin and 87.20 % Forskolin"}, {"measurement": "cAMP response (% Forskolin)", "setting": "C3aR L82^2.64A; Log[C3a (M)] -10", "value": "90.69 % Forskolin and 88.60 % Forskolin and 91.27 % Forskolin and 91.83 % Forskolin"}, {"measurement": "cAMP response (% Forskolin)", "setting": "C3aR L82^2.64A; Log[C3a (M)] -11", "value": "96.32 % Forskolin and 92.63 % Forskolin and 98.10 % Forskolin and 96.40 % Forskolin"}, {"measurement": "cAMP response (% Forskolin)", "setting": "C3aR L82^2.64A; Log[C3a (M)] -12", "value": "96.44 % Forskolin and 101.07 % Forskolin and 97.65 % Forskolin and 97.10 % Forskolin"}, {"measurement": "cAMP response (% Forskolin)", "setting": "C3aR D417^7.35A; Log[C3a (M)] -7", "value": "91.99 % Forskolin and 99.64 % Forskolin and 84.06 % Forskolin"}, {"measurement": "cAMP response (% Forskolin)", "setting": "C3aR D417^7.35A; Log[C3a (M)] -8", "value": "90.00 % Forskolin and 93.47 % Forskolin and 96.64 % Forskolin"}, {"measurement": "cAMP response (% Forskolin)", "setting": "C3aR D417^7.35A; Log[C3a (M)] -9", "value": "98.82 % Forskolin and 114.21 % Forskolin and 106.52 % Forskolin"}, {"measurement": "cAMP response (% Forskolin)", "setting": "C3aR D417^7.35A; Log[C3a (M)] -10", "value": "109.81 % Forskolin and 104.73 % Forskolin and 103.88 % Forskolin"}, {"measurement": "cAMP response (% Forskolin)", "setting": "C3aR D417^7.35A; Log[C3a (M)] -11", "value": "98.54 % Forskolin and 110.53 % Forskolin and 108.95 % Forskolin"}, {"measurement": "cAMP response (% Forskolin)", "setting": "C3aR D417^7.35A; Log[C3a (M)] -12", "value": "97.82 % Forskolin and 107.45 % Forskolin and 101.02 % Forskolin"}, {"measurement": "Mean Diff. of pIC50, WT vs. H418A", "setting": "C3aR H418^7.36A; [1]", "value": 0.008}, {"measurement": "cAMP response (% Forskolin)", "setting": "C3aR H418^7.36A; H418A, Log[C3a (M)] -7", "value": "25.95 % Forskolin and 18.34 % Forskolin and 14.90 % Forskolin and 10.15 % Forskolin"}, {"measurement": "cAMP response (% Forskolin)", "setting": "C3aR H418^7.36A; H418A, Log[C3a (M)] -8", "value": "26.38 % Forskolin and 19.33 % Forskolin and 14.37 % Forskolin and 9.75 % Forskolin"}, {"measurement": "cAMP response (% Forskolin)", "setting": "C3aR H418^7.36A; H418A, Log[C3a (M)] -9", "value": "37.00 % Forskolin and 39.46 % Forskolin and 38.86 % Forskolin and 18.94 % Forskolin"}, {"measurement": "cAMP response (% Forskolin)", "setting": "C3aR H418^7.36A; H418A, Log[C3a (M)] -10", "value": "73.80 % Forskolin and 84.21 % Forskolin and 84.87 % Forskolin and 53.38 % Forskolin"}, {"measurement": "cAMP response (% Forskolin)", "setting": "C3aR H418^7.36A; H418A, Log[C3a (M)] -11", "value": "92.78 % Forskolin and 94.37 % Forskolin and 96.55 % Forskolin and 91.56 % Forskolin"}, {"measurement": "cAMP response (% Forskolin)", "setting": "C3aR H418^7.36A; H418A, Log[C3a (M)] -12", "value": "97.08 % Forskolin and 98.99 % Forskolin and 94.98 % Forskolin and 97.61 % Forskolin"}, {"measurement": "ΔpIC50 ± SE of Diff.", "setting": "C3aR H418^7.36A; H418^7.36A relative to WT C3aR", "value": "-0.008 ± 0.011"}, {"measurement": "IC50", "setting": "C3aR H418^7.36A; H418^7.36A, dose-response plot, read-out: IC50", "value": 3.34, "unit": "nM"}, {"measurement": "pIC50 (Replicate)", "setting": "C3aR H418^7.36A; H418^7.36A, individual replicates", "value": "8.55 and 8.43 and 8.42 (2×) and 8.38 and 8.70"}, {"measurement": "pIC50 ± SEM (Mean)", "setting": "C3aR H418^7.36A; H418^7.36A, mean of independent experiments", "value": 8.49}, {"measurement": "cAMP response (% Forskolin)", "setting": "C3aR H418^7.36A; H4187.36A, Log[C3a (M)] -7", "value": "18.06 % Forskolin and 18.98 % Forskolin and 15.70 % Forskolin and 12.14 % Forskolin and 13.13 % Forskolin and 12.07 % Forskolin and 13.03 % Forskolin"}, {"measurement": "cAMP response (% Forskolin)", "setting": "C3aR H418^7.36A; H4187.36A, Log[C3a (M)] -8", "value": "24.13 % Forskolin and 25.40 % Forskolin and 25.03 % Forskolin and 14.18 % Forskolin and 21.72 % Forskolin and 18.92 % Forskolin and 21.43 % Forskolin"}, {"measurement": "cAMP response (% Forskolin)", "setting": "C3aR H418^7.36A; H4187.36A, Log[C3a (M)] -9", "value": "81.20 % Forskolin and 92.26 % Forskolin and 92.38 % Forskolin and 94.46 % Forskolin and 94.81 % Forskolin and 73.56 % Forskolin and 81.94 % Forskolin"}, {"measurement": "cAMP response (% Forskolin)", "setting": "C3aR H418^7.36A; H4187.36A, Log[C3a (M)] -10", "value": "97.67 % Forskolin and 104.16 % Forskolin and 99.86 % Forskolin and 96.43 % Forskolin and 93.22 % Forskolin and 100.34 % Forskolin and 90.38 % Forskolin"}, {"measurement": "cAMP response (% Forskolin)", "setting": "C3aR H418^7.36A; H4187.36A, Log[C3a (M)] -11", "value": "100.38 % Forskolin and 103.33 % Forskolin and 102.03 % Forskolin and 95.26 % Forskolin and 97.84 % Forskolin and 98.73 % Forskolin and 97.27 % Forskolin"}, {"measurement": "cAMP response (% Forskolin)", "setting": "C3aR H418^7.36A; H4187.36A, Log[C3a (M)] -12", "value": "93.49 % Forskolin and 89.91 % Forskolin and 97.60 % Forskolin and 95.65 % Forskolin and 97.38 % Forskolin and 104.40 % Forskolin and 97.91 % Forskolin"}]}]}
